From patent US20040253632A1 come the findings set out here.

The target of assay [1] is DO11.10 scTCR/murine IgG2b fusion molecule (mouse) (UniProt P01867). The assay is described as follows: sandwich ELISA on supernatant of COS-7 cells co-transfected with both fusions; goat anti-murine kappa capture, anti-murine IgG2b-HRP detection, A450.
Assay [2] addresses DO11.10 TCR (endogenous T cell receptor of the DO11.10 T cell hybridoma). The assay is described as follows: cell-based or functional assay.
The target is the same in assay [3]. The assay is described as follows: cell-based or functional assay. This is another data set of the same source.
In assay [4] the target is DO11.10 scTCR/murine CD3ζ fusion molecule (membrane-bound, on transfected cells) (mouse) (UniProt P24161). The assay is described as follows: cell-based or functional assay.
Chain of UniProt P24161 (P24161 whole entry, the tested form may be a part): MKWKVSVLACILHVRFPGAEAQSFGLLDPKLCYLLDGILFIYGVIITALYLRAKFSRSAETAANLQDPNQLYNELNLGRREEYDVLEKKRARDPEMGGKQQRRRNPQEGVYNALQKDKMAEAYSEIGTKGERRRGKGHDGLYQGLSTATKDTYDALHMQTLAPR
Assay [5] shares this target. Description: cell-based or functional assay. This is another data set of the same source.
The target of assay [6] is DO11.10 TCR (endogenous T cell receptor of the DO11.10 T cell hybridoma). The assay is described as follows: cell-based or functional assay. The source holds these as a separate data set.

Chain of UniProt P01867 (P01867 other isoform, or with tags, fused parts or gaps): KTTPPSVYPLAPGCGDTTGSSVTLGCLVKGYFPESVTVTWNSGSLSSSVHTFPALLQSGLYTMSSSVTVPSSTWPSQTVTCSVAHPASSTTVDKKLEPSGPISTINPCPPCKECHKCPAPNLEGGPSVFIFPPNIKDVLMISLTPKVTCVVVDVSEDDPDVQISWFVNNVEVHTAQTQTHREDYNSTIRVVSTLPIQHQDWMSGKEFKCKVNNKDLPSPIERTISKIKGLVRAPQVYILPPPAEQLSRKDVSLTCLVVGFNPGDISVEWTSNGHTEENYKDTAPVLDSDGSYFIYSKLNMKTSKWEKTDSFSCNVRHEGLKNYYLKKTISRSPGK

“DO11.10 scTCR/murine kappa fusion molecule”: in assay [1], the absorbance relative to the negative control (fold) worked out at 40 fold.
With “monovalent scIA^d/OVA-BirA complexes (monomer, no avidin) (peptide-MHC)”, in assay [2], the IL-2 ELISA value; DO11.10 cells; 31 ng complex/well was 0.242 A450, the IL-2 ELISA value; DO11.10 cells; 62 ng complex/well was found to be 0.398 A450, the IL-2 ELISA value; DO11.10 cells; 125 ng complex/well is 0.513 A450 and the IL-2 ELISA value; DO11.10 cells; 500 ng complex/well is 1.05 A450. The IL-2 ELISA value; DO11.10 cells; 1000 ng complex/well in assay [2] is 1.16 A450.
Take “scIA^d/GD-IgG multimer (scIA^d/GD-Cκ fusion with scIA^d/GD-IgG2b heavy chain fusion) (peptide-MHC)”: in assay [2], the IL-2 ELISA value; DO11.10 T cells; 12.5 ng complex/well came out at 0.159 A405, the IL-2 ELISA value; DO11.10 T cells; 25 ng complex/well was 0.166 A405, the IL-2 ELISA value; DO11.10 T cells; 50 ng complex/well is 0.155 A405 and the IL-2 ELISA value; DO11.10 T cells; 100 ng complex/well worked out at 0.166 A405.
“single-chain IA^d linked to OVA 323-339 (scIA^d/OVA), monovalent (peptide-MHC)”: in assay [3], the IL-2 ELISA value; DO11.10 T cells; 7 ng complex/well is 0.236 A405, the IL-2 ELISA value; DO11.10 T cells; 15 ng complex/well is 0.397 A405, the IL-2 ELISA value; DO11.10 T cells; 31 ng complex/well was 0.646 A405 and the IL-2 ELISA value; DO11.10 T cells; 62 ng complex/well was determined as 1.03 A405. In assay [3], this molecule came in with an IL-2 ELISA value; DO11.10 T cells; 125 ng complex/well of 1.06 A405 and an IL-2 ELISA value; DO11.10 T cells; 250 ng complex/well of 0.665 A405. Moreover, in assay [4], the IL-2 ELISA value; DO11.10 scTCR 2B4 transfectants; 7 ng complex/well was determined as 0.236 A405, the IL-2 ELISA value; DO11.10 scTCR 2B4 transfectants; 15 ng complex/well was 0.397 A405, the IL-2 ELISA value; DO11.10 scTCR 2B4 transfectants; 31 ng complex/well came to 0.646 A405 and the IL-2 ELISA value; DO11.10 scTCR 2B4 transfectants; 62 ng complex/well amounted to 1.03 A405. In addition, in assay [4], the IL-2 ELISA value; DO11.10 scTCR 2B4 transfectants; 125 ng complex/well was found to be 1.06 A405 and the IL-2 ELISA value; DO11.10 scTCR 2B4 transfectants; 250 ng complex/well is 1.06 A405. For the same molecule, in assay [2], the IL-2 ELISA value; DO11.10 T cells; 12.5 ng complex/well was found to be 0.176 A405, the IL-2 ELISA value; DO11.10 T cells; 25 ng complex/well stood at 0.209 A405, the IL-2 ELISA value; DO11.10 T cells; 50 ng complex/well was 1.19 A405 and the IL-2 ELISA value; DO11.10 T cells; 100 ng complex/well was determined as 3.06 A405. This molecule returned a mean IL-2 absorbance reading of eight DMSO control wells (assay plate 5-2); DO11.10 T cells on 50 ng/well scIA^d/OVA in assay [2] of 2.2 A450.
In assay [2], “multi-valent scIA^d/OVA-BirA complexes (biotinylated scIA^d/OVA-BirA bound to avidin) (from UniProt P02701 25-152) (peptide-MHC)” gave an IL-2 ELISA value; DO11.10 cells; 31 ng complex/well of 0.554 A450, an IL-2 ELISA value; DO11.10 cells; 62 ng complex/well of 0.744 A450, an IL-2 ELISA value; DO11.10 cells; 125 ng complex/well of 0.916 A450 and an IL-2 ELISA value; DO11.10 cells; 500 ng complex/well of 1.6 A450. In addition, the IL-2 ELISA value; DO11.10 cells; 1000 ng complex/well in assay [2] is 1.86 A450.

B1: IA^d/OVA complex on OVA peptide-pulsed A20 antigen presenting cells (peptide-MHC, mouse)
MHC II alpha: EDDIEADHVGFYGTTVYQSPGDIGQYTHEFDGDELFYVDLDKKKTVWRLPEFGQLILFEPQGGLQNIAAEKHNLGILTKRSNFTPATNEAPQATVFPKSPVLLGQPNTLICFVDNIFPPVINITWLRNSKSVTDGVYETSFLVNRDHSFHKLSYLTFIPSDDDIYDCKVEHWGLEEPVLKHWEPEIPAPMSELTETVVCALGLSVGLVGIVVGTIFIIQGLRSGGTSRHPGPL
MHC II beta: GNSERHFVVQFKGECYYTNGTQRIRLVTRYIYNREEYVRYDSDVGEYRAVTELGRPDAEYWNSQPEILERTRAEVDTACRHNYEGPETSTSLRRLEQPNVAISLSRTEALNHHNTLVCSVTDFYPAKIKVRWFRNGQEETVGVSSTQLIRNGDWTFQVLVMLEMTPHQGEVYTCHVEHPSLKSPITVEWRAQSESARSKMLSGIGGCVLGVIFLGLGLFIRHRSQKGPRGPPPAGLLQ
peptide: ISQAVHAAHAEINEAGR
As to B1, in assay [5], the IL-2 production of BW/DZ cells with full-length CD4 (BWDZ:CD4+) relative to DO11.10 cells; OVA peptide-mixed A20 APCs fell in the range of 75 to 80% and the IL-2 production of BW/DZ cells with truncated CD4 lacking the cytoplasmic domain (BWDZ:deltaCM) relative to DO11.10 cells; OVA peptide-mixed A20 APCs was determined as 10%. In assay [6], this molecule gave an IL-2 ELISA value; DO11.10 T cells with OVA peptide-loaded A20 cells; 0 µM compound 12G9 of 1.91 A405, an IL-2 ELISA value; DO11.10 T cells with OVA peptide-loaded A20 cells; 0 µM compound 211-C3 of 2.02 A405, an IL-2 ELISA value; DO11.10 T cells with OVA peptide-loaded A20 cells; 0 µM compound 211-C9 of 2.02 A405 and an IL-2 ELISA value; DO11.10 T cells with OVA peptide-loaded A20 cells; 0 µM compound 211B9 of 1.92 A405.
